Laboratory results as given in the Human Domainome abundance scans (Beltran et al. 2025).
± gives the uncertainty stated by the source.

B1: Mineralocorticoid receptor, residues 600 to 675; numbered along this chain, P08235 (parent)
chain: SKICLVCGDEASGCHYGVVTCGSCKVFFKRAVEGQHNYLCAGRNDCIIDKIRRKNCPACRLQKCLQAGMNLGARKS

Variants of: B1
Assay: abundance fitness (aPCA) (normalised: wild type 0, dead -1); higher = more abundant; growth selection in yeast, the domain comes from the species named
Settings: Homo sapiens

Row | Variant | abundance fitness
1 | A31E | -0.022 ± 0.23
2 | A31H | -0.616 ± 0.35
3 | A31M | 0.474 ± 0.49
4 | A31S | -0.022 ± 0.38
5 | A31F | -0.104 ± 0.22
6 | A31L | -0.553 ± 0.38
7 | A31G | 0.001 ± 0.16
8 | A31V | 0.194 ± 0.31
9 | R30P | 0.293 ± 0.45
10 | R30H | 0.043 ± 0.21
11 | R30W | -0.29 ± 0.5
12 | R30Y | -0.121 ± 0.32
13 | Y38C | -0.153 ± 0.057
14 | Y38D | -0.041 ± 0.05
15 | Y38K | -0.026 ± 0.067
16 | Y38S | -0.049 ± 0.036
17 | Y38L | -0.054 ± 0.039
18 | Y38H | -0.059 ± 0.048
19 | Y38A | -0.027 ± 0.042
20 | Y38F | -0.027 ± 0.049
21 | Y38R | -0.088 ± 0.05
22 | Y38T | -0.051 ± 0.04
23 | Y38G | -0.164 ± 0.064
24 | Y38M | -0.117 ± 0.1

Row | Variant | abundance fitness
25 | Y38V | 0.012 ± 0.046
26 | Y38Q | -0.118 ± 0.077
27 | Y38N | -0.098 ± 0.039
28 | Y38W | -0.047 ± 0.084
29 | Y38P | -0.038 ± 0.043
30 | Y38I | -0.069 ± 0.046
31 | Q35D | 0.056 ± 0.057
32 | Q35Y | -0.112 ± 0.056
33 | Q35V | -0.079 ± 0.035
34 | Q35I | -0.015 ± 0.056
35 | Q35E | 0.069 ± 0.058
36 | Q35G | -0.023 ± 0.042
37 | Q35R | -0.002 ± 0.038
38 | Q35H | -0.022 ± 0.051
39 | Q35F | -0.129 ± 0.055
40 | Q35A | -0.058 ± 0.044
41 | Q35L | -0.094 ± 0.038
42 | Q35C | -0.073 ± 0.05
43 | Q35M | -0.121 ± 0.056
44 | Q35K | 0.011 ± 0.06
45 | Q35P | -0.013 ± 0.047
46 | Q35N | -0.058 ± 0.049
47 | Q35T | -0.077 ± 0.043
48 | Q35S | -0.028 ± 0.038

Row | Variant | abundance fitness
49 | Q35W | -0.205 ± 0.057
50 | H36Q | -0.004 ± 0.042
51 | H36N | 0.001 ± 0.042
52 | H36E | -0.004 ± 0.038
53 | H36P | -0.021 ± 0.036
54 | H36S | 0.01 ± 0.03
55 | H36A | 0.025 ± 0.03
56 | H36I | -0.022 ± 0.043
57 | H36W | -0.157 ± 0.039
58 | H36C | -0.042 ± 0.042
59 | H36D | 0.005 ± 0.041
60 | H36G | -0.012 ± 0.027
61 | H36Y | -0.043 ± 0.039
62 | H36L | -0.087 ± 0.028
63 | H36K | -0.138 ± 0.054
64 | H36M | -0.046 ± 0.039
65 | H36T | -0.022 ± 0.037
66 | H36F | -0.023 ± 0.045
67 | V32F | -0.013 ± 0.077
68 | V32N | -0.08 ± 0.13
69 | V32I | 0.019 ± 0.1
70 | V32K | -0.004 ± 0.18
71 | V32Q | -0.017 ± 0.12
72 | V32D | -0.035 ± 0.2

Row | Variant | abundance fitness
73 | V32P | -0.682 ± 0.25
74 | V32E | -0.004 ± 0.22
75 | V32R | -0.095 ± 0.082
76 | V32H | -0.158 ± 0.14
77 | V32Y | -0.1 ± 0.1
78 | V32W | -0.24 ± 0.14
79 | V32A | 0.023 ± 0.1
80 | V32G | -0.228 ± 0.19
81 | V32M | 0.114 ± 0.15
82 | I47G | -0.096 ± 0.067
83 | I47W | -0.193 ± 0.1
84 | I47K | 0.018 ± 0.11
85 | I47T | 0.027 ± 0.049
86 | I47C | 0.049 ± 0.057
87 | I47H | -0.018 ± 0.043
88 | I47M | -0.079 ± 0.09
89 | I47Y | -0.128 ± 0.05
90 | I47P | 0.013 ± 0.058
91 | I47S | 0 ± 0.038
92 | I47F | -0.01 ± 0.047
93 | I47R | 0.03 ± 0.049
94 | I47D | -0.065 ± 0.057
95 | I47V | -0.019 ± 0.058
96 | I47A | -0.035 ± 0.055

Row | Variant | abundance fitness
97 | I47E | -0.023 ± 0.14
98 | I47L | 0.022 ± 0.044
99 | I47Q | -0.024 ± 0.072
100 | N37D | -0.02 ± 0.047
101 | N37P | -0.083 ± 0.041
102 | N37R | 0.01 ± 0.03
103 | N37C | -0.036 ± 0.049
104 | N37M | -0.076 ± 0.059
105 | N37G | -0.061 ± 0.03
106 | N37H | -0.051 ± 0.051
107 | N37K | 0.031 ± 0.051
108 | N37F | -0.264 ± 0.075
109 | N37Q | -0.017 ± 0.046
110 | N37V | 0.026 ± 0.036
111 | N37I | -0.058 ± 0.058
112 | N37Y | -0.085 ± 0.048
113 | N37S | -0.043 ± 0.033
114 | N37T | -0.029 ± 0.04
115 | N37E | 0.068 ± 0.042
116 | N37A | -0.027 ± 0.034
117 | N37W | -0.23 ± 0.047
118 | A41F | -0.277 ± 0.07
119 | A41D | 0.036 ± 0.051
120 | A41N | -0.079 ± 0.052

Row | Variant | abundance fitness
121 | A41E | 0.129 ± 0.081
122 | A41Q | -0.074 ± 0.069
123 | A41T | -0.048 ± 0.045
124 | A41Y | 0.001 ± 0.06
125 | A41M | 0.052 ± 0.056
126 | A41V | -0.053 ± 0.043
127 | A41W | -0.127 ± 0.075
128 | A41C | -0.017 ± 0.06
129 | A41P | -0.116 ± 0.048
130 | A41S | -0.077 ± 0.041
131 | A41G | 0.028 ± 0.04
132 | A41K | -0.149 ± 0.077
133 | A41R | -0.021 ± 0.044
134 | A41L | -0.103 ± 0.041
135 | A41H | -0.033 ± 0.045
136 | R43L | -0.055 ± 0.029
137 | R43W | -0.067 ± 0.04
138 | R43Q | -0.067 ± 0.043
139 | R43G | -0.006 ± 0.028
140 | R43N | -0.015 ± 0.036
141 | R43I | -0.025 ± 0.034
142 | R43H | -0.029 ± 0.04
143 | R43T | -0.001 ± 0.032
144 | R43F | -0.045 ± 0.035

Row | Variant | abundance fitness
145 | R43M | 0.008 ± 0.048
146 | R43P | -0.138 ± 0.038
147 | R43S | -0.001 ± 0.027
148 | R43K | 0.029 ± 0.049
149 | R43D | -0.024 ± 0.043
150 | R43E | 0.005 ± 0.042
151 | R43V | -0.038 ± 0.03
152 | D45S | -0.092 ± 0.037
153 | D45N | -0.045 ± 0.04
154 | D45G | -0.079 ± 0.032
155 | D45E | 0.015 ± 0.042
156 | D45V | -0.074 ± 0.031
157 | D45A | -0.067 ± 0.033
158 | D45L | -0.094 ± 0.034
159 | D45Y | -0.159 ± 0.044
160 | D45Q | 0.016 ± 0.053
161 | D45F | -0.163 ± 0.046
162 | D45M | -0.057 ± 0.054
163 | D45T | -0.104 ± 0.038
164 | D45I | -0.1 ± 0.041
165 | D45P | -0.149 ± 0.046
166 | D45R | -0.024 ± 0.035
167 | D45W | -0.249 ± 0.054
